# Data taken from paper PMC6123492, “Structural and biochemical insights into small RNA 3′ end trimming by Arabidopsis SDN1”.
# T1: SDN1 TEV (Arabidopsis thaliana, UniProt A3KPE8 2-300+=ENLYFQS+301-409, internal_change)
# T1 sequence: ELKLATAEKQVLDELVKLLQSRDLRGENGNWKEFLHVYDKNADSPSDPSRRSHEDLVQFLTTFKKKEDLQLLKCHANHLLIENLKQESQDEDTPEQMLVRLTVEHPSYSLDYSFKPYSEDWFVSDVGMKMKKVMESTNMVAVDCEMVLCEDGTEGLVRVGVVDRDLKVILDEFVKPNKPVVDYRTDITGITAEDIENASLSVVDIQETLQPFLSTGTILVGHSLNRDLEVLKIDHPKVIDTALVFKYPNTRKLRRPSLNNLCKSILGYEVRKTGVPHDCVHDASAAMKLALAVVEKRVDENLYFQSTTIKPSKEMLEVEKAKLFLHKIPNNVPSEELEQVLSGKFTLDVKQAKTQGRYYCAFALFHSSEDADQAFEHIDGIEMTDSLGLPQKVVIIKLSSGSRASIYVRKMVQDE
# T2: SDN1 Q21A (Arabidopsis thaliana, UniProt A3KPE8 2-409, Q21A)
# T2 sequence: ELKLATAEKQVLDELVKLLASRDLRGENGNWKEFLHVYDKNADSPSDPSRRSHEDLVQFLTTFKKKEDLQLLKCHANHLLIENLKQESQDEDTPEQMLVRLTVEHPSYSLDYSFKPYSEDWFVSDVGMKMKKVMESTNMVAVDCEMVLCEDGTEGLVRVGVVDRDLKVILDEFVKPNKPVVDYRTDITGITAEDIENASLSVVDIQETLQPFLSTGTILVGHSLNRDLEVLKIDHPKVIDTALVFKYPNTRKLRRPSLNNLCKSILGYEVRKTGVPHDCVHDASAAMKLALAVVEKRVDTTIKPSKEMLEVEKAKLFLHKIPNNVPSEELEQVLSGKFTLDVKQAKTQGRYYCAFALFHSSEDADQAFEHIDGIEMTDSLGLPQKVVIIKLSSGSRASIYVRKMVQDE
# T3: SDN1 S22A (Arabidopsis thaliana, UniProt A3KPE8 2-409, S22A)
# T3 sequence: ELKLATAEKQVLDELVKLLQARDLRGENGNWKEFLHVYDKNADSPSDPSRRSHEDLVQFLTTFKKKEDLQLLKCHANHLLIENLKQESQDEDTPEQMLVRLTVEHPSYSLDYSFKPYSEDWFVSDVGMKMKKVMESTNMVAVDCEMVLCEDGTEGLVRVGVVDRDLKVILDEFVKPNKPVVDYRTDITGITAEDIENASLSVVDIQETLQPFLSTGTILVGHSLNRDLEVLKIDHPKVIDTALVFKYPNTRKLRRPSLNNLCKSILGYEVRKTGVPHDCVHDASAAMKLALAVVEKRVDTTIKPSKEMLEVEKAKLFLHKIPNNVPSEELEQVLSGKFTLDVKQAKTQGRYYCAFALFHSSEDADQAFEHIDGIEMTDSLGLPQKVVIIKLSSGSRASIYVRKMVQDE
# T4: SDN1 F356A (Arabidopsis thaliana, UniProt A3KPE8 2-409, F356A)
# T4 sequence: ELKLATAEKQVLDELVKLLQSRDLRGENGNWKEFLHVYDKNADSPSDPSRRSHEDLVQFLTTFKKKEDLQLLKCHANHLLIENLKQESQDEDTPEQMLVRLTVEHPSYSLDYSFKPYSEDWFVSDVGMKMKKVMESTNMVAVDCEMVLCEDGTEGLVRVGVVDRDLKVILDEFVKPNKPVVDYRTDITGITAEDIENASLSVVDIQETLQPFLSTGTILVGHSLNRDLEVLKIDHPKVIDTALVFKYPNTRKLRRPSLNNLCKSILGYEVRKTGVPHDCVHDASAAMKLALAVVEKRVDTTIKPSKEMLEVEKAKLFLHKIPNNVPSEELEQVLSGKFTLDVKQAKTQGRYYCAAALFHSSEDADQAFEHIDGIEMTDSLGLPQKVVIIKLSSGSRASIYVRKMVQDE
# B1: miR166:3'-IUU (dsRNA)
# RNA 1: UCGGACCAGGCUUCAUCCCCC
# RNA 2: GAUUCCCUUGAAGCUUGGUCCGGAUUA
# modifications: 5-iodoU at 25,26 of strand 2
# B2: miR166:5'-IUU (dsRNA)
# RNA 1: UCGGACCAGGCUUCAUCCCCC
# RNA 2: GAUUCCCUUGAAGCUUGGUCCGGAUUA
# modifications: 5-iodoU at 3,4 of strand 2
# Tests used:
# [1] = target: T1, SDN1 TEV; experiment: UV crosslinking + TEV mapping; RNA on DEDDh (ΔC) fragment; EMSA: 50 mM Tris pH 8.0, 100 mM NaCl, 1 mM DTT, no Mg2+, 2 nM RNA, on ice 30 min, 8% native PAGE in 0.5x TBE; NMR: 50 mM Na2HPO4 pH 7.4, 100 mM NaCl, 10% D2O; settings: protein: recombinant; tags: His-SUMO tag removed; label: 5' 32P on target strand; unpaired miR166 3' end (T6-type); target 3' overhang 4 nt
# [2] = target: T1, SDN1 TEV; experiment: UV crosslinking + TEV mapping; RNA on RRM fragment; EMSA: 50 mM Tris pH 8.0, 100 mM NaCl, 1 mM DTT, no Mg2+, 2 nM RNA, on ice 30 min, 8% native PAGE in 0.5x TBE; NMR: 50 mM Na2HPO4 pH 7.4, 100 mM NaCl, 10% D2O; settings: protein: recombinant; tags: His-SUMO tag removed; label: 5' 32P on target strand; unpaired miR166 3' end (T6-type); target 3' overhang 4 nt
# [3] = target: T2, SDN1 Q21A; experiment: EMSA; not impaired; EMSA: 50 mM Tris pH 8.0, 100 mM NaCl, 1 mM DTT, no Mg2+, 2 nM RNA, on ice 30 min, 8% native PAGE in 0.5x TBE; NMR: 50 mM Na2HPO4 pH 7.4, 100 mM NaCl, 10% D2O; settings: protein: recombinant; tags: His-SUMO tag removed; label: 5' 32P; single strand
# [4] = target: T3, SDN1 S22A; experiment: as above; settings: protein: recombinant; tags: His-SUMO tag removed; label: 5' 32P; single strand
# [5] = target: T4, SDN1 F356A; experiment: EMSA; no Mg2+; not impaired; EMSA: 50 mM Tris pH 8.0, 100 mM NaCl, 1 mM DTT, no Mg2+, 2 nM RNA, on ice 30 min, 8% native PAGE in 0.5x TBE; NMR: 50 mM Na2HPO4 pH 7.4, 100 mM NaCl, 10% D2O; settings: protein: recombinant; tags: His-SUMO tag removed; label: 5' 32P; single strand
binder,measurement,setting,value
B1,binding result,[1],binds
B2,binding result,[2],binds
UCGGACCAGGCUUCAUCCCCC (ssRNA) [miR166],binding result,[3],binds
same,binding result,[4],binds
same,binding result,[5],binds
